Test results as given in patent publication US20220119536A1 (Boehringer Ingelheim, published 2022).
Where “and” joins values, the source holds several entries; their conditions need not be identical. Equal entries are not always repeated. Where two headings read alike, the source gives them in different places.

Columns and labels:
Experiment in all cases: cell-based or functional assay
[1] = molecular target: T1, human VEGF-A (human, UniProt P15692-4 27-191)
[2] = molecular target: T1, human VEGF-A; remark: listed apart in the source
[3] = molecular target: T1, human VEGF-A; remark: listed apart in the source
[4] = molecular target: T1, human VEGF-A; remark: listed apart in the source
[5] = molecular target: T2, human TrkB receptor (human, UniProt Q16620 32-822)
[6] = molecular target: T2, human TrkB receptor; remark: listed apart in the source
[7] = molecular target: T1, human VEGF-A; remark: listed apart in the source
[8] = molecular target: T1, human VEGF-A; remark: listed apart in the source

T1 sequence (P15692 other isoform, or with tags, fused parts or gaps limits assumed): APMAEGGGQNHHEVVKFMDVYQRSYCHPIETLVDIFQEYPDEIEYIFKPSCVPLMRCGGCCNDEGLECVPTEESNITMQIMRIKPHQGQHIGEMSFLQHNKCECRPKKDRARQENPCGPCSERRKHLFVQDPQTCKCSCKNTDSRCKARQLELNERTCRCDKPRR
T2 sequence (Q16620 32-822): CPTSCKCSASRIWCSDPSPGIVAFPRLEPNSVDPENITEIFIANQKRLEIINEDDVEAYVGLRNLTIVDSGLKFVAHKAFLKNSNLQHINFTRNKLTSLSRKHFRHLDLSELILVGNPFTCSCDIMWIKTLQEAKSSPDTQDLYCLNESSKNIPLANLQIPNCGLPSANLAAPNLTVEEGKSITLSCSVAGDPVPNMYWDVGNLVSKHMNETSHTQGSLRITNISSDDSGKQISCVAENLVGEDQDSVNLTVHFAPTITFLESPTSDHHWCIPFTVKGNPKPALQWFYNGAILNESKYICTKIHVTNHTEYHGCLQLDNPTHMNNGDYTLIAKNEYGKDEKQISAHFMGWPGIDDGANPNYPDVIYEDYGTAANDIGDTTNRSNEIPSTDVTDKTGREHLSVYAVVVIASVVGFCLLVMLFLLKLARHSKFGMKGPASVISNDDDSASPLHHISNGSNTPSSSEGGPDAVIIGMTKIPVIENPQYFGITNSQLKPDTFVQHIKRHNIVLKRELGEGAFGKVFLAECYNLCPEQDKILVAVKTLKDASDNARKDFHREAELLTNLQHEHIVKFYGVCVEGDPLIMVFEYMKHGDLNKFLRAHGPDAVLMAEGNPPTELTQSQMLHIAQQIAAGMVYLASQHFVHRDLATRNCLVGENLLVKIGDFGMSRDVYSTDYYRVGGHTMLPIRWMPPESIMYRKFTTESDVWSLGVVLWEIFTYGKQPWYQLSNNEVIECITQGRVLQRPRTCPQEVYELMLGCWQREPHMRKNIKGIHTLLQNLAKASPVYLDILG

B1: TPP-14938 (bispecific antibody, human IgG1, kappa, L234A L235A)
light: DIQMTQSPSSLSASVGDRVTITCRASQVIRRSLAWYQQKPGKAPKLLIYAASNLASGVPSRFSGSGSGTDFTLTISSLQPEDFATYYCQQSNTSPLTFGQGTKVEIKRTVAAPSVFIFPPSDEQLKSGTASVVCLLNNFYPREAKVQWKVDNALQSGNSQESVTEQDSKDSTYSLSSTLTLSKADYEKHKVYACEVTHQGLSSPVTKSFNRGEC
heavy: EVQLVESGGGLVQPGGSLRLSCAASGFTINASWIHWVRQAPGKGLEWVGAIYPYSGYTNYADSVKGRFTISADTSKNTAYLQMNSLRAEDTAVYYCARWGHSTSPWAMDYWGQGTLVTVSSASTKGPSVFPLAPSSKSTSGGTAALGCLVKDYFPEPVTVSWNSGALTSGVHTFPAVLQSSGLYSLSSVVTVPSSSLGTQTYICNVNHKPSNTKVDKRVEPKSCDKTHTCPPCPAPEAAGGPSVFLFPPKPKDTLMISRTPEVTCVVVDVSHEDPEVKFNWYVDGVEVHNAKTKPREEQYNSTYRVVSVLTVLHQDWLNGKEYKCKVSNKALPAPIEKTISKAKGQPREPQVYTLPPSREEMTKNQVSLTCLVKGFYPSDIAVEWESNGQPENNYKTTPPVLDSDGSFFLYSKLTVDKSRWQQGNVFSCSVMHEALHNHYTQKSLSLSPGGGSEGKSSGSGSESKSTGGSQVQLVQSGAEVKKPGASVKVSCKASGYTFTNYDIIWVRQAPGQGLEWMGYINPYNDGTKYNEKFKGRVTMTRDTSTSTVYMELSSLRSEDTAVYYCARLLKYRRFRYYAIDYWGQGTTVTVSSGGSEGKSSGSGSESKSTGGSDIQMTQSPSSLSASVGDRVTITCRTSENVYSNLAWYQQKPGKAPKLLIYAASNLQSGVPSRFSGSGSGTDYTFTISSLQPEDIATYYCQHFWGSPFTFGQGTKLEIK
B1 was tested, and the “Bottom plateau (ERK1/2 phosphorylation, counts)” value [1] was 1330 counts, the “Bottom plateau (Src phosphorylation, counts)” value [1] was 5480 counts and the “IC50 (ERK1/2 phosphorylation)” value [1] was 2.71 nM. The “IC50 (Src phosphorylation)” value [1] was 1.8 nM, the “Bottom plateau (ERK1/2 phosphorylation, counts)” value [2] was 1330 counts and the “Bottom plateau (Src phosphorylation, counts)” value [2] was 5480 counts. The “IC50 (ERK1/2 phosphorylation)” value [2] was 2.71 nM, the “IC50 (Src phosphorylation)” value [2] was 1.8 nM and the “concentration for full inhibition of VEGF-induced HRMEC proliferation” value (from here on “concentration for full inhibition”) [3] was over 16 nM.

B2: TPP-14939 (bispecific antibody, human IgG1, kappa, L234A L235A)
light: B1 light
heavy: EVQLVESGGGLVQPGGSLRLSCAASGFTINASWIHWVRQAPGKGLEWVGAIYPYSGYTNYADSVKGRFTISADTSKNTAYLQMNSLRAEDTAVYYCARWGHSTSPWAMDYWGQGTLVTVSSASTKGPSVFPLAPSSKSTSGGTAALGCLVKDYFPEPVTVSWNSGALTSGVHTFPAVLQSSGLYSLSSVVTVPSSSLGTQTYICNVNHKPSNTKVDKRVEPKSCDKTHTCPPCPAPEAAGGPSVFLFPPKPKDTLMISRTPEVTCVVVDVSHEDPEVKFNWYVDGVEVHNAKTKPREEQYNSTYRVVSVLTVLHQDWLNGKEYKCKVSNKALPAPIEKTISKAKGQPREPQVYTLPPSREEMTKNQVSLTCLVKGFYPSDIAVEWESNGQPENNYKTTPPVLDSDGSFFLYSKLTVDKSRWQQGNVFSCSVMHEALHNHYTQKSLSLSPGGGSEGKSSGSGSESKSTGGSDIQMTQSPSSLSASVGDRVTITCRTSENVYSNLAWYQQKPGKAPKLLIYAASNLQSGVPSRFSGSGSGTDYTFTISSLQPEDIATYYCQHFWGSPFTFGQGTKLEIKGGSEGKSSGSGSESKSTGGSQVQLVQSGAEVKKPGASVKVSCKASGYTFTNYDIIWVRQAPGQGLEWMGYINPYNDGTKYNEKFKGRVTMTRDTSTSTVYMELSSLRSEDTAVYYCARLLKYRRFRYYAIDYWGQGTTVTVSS
With B2 the “Bottom plateau (ERK1/2 phosphorylation, counts)” value [1] was 1140 counts, the “Bottom plateau (Src phosphorylation, counts)” value [1] was 5540 counts and the “IC50 (ERK1/2 phosphorylation)” value [1] was 2.51 nM. The “IC50 (Src phosphorylation)” value [1] was 1.16 nM, the “Bottom plateau (ERK1/2 phosphorylation, counts)” value [2] was 1140 counts and the “Bottom plateau (Src phosphorylation, counts)” value [2] was 5540 counts. For the same binder, the “IC50 (ERK1/2 phosphorylation)” value [2] was 2.51 nM, the “IC50 (Src phosphorylation)” value [2] was 1.16 nM and the “concentration for full inhibition” value [3] was over 16 nM.

B3: TPP-13788 (B20 IgG) (antibody, V domains shown)
VH: EVQLVESGGGLVQPGGSLRLSCAASGFTINASWIHWVRQAPGKGLEWVGAIYPYSGYTNYADSVKGRFTISADTSKNTAYLQMNSLRAEDTAVYYCARWGHSTSPWAMDYWGQGTLVTVSS
VL: DIQMTQSPSSLSASVGDRVTITCRASQVIRRSLAWYQQKPGKAPKLLIYAASNLASGVPSRFSGSGSGTDFTLTISSLQPEDFATYYCQQSNTSPLTFGQGTKVEIK
For B3, the “IC50 (ERK1/2 phosphorylation)” value [4] was 3 nM, the “IC50 (p38 MAPK phosphorylation)” value [4] was 2.4 nM and the “fold increase of VEGF-A scavenging potency vs. TPP-11736” value [3] was about 3 fold.

B4: human BDNF (ligand, UniProt P23560 129-247, looked up)
chain: HSDPARRGELSVCDSISEWVTAADKKTAVDMSGGTVTVLEKVPVSKGQLKQYFYETKCNPMGYTKEGCRGIDKRHWNSQCRTTQSYVRALTMDSKKRIGWRFIRIDTSCVCTLTIKRGR
In the case of B4, the “EC50 (pERK)” value [5] is reported as 0.282 nM, the “EC50 (pTrkB)” value [5] is reported as 1.28 nM and the “EC50 (pERK)” value [6] is reported as 0.507 nM. The “EC50 (pTrkB)” value [6] was 1.22 nM.

B5: TPP-11736 (bispecific antibody, human IgG1, kappa, L234A L235A)
light: DIQMTQSPSSLSASVGDRVTITCRTSENVYSNLAWYQQKPGKAPKLLIYAASNLQSGVPSRFSGSGSGTDYTFTISSLQPEDIATYYCQHFWGSPFTFGQGTKLEIKRTVAAPSVFIFPPSDEQLKSGTASVVCLLNNFYPREAKVQWKVDNALQSGNSQESVTEQDSKDSTYSLSSTLTLSKADYEKHKVYACEVTHQGLSSPVTKSFNRGEC
heavy: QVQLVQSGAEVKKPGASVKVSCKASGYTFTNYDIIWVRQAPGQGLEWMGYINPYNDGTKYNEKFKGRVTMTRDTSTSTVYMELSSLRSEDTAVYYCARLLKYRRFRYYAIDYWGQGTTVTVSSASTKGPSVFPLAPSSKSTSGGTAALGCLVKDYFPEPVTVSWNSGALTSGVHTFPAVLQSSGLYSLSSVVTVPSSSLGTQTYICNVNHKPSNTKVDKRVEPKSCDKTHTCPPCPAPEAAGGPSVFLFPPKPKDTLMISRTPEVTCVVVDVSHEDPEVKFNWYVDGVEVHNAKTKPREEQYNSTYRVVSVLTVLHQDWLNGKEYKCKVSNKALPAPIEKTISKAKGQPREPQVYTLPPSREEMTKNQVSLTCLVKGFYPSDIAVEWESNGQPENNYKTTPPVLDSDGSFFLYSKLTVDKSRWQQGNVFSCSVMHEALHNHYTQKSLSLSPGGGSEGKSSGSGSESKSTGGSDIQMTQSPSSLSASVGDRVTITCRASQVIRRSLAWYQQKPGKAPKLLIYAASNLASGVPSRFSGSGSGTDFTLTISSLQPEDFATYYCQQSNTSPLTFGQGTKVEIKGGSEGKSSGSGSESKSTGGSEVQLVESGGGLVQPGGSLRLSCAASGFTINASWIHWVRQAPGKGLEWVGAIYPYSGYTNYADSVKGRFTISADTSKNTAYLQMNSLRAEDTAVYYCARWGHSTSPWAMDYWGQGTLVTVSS
For B5, the “IC50 (ERK1/2 phosphorylation)” value [4] was 9.1 nM, the “IC50 (p38 MAPK phosphorylation)” value [4] was 7.7 nM and the “Bottom plateau (ERK1/2 phosphorylation, counts)” value [1] was 3690 counts. The “Bottom plateau (Src phosphorylation, counts)” value [1] was 6300 counts, the “IC50 (ERK1/2 phosphorylation)” value [1] was 5.59 nM and the “IC50 (Src phosphorylation)” value [1] was 3.97 nM. The “Bottom plateau (ERK1/2 phosphorylation, counts)” value [7] was 3690 counts, the “Bottom plateau (Src phosphorylation, counts)” value [7] was 6300 counts and the “IC50 (ERK1/2 phosphorylation)” value [7] was 5.59 nM. The “IC50 (Src phosphorylation)” value [7] was 3.97 nM, the “Bottom plateau (ERK1/2 phosphorylation, counts)” value [2] was 3690 counts and the “Bottom plateau (Src phosphorylation, counts)” value [2] was 6300 counts. For the same binder, the “IC50 (ERK1/2 phosphorylation)” value [2] was 5.59 nM, the “IC50 (Src phosphorylation)” value [2] was 3.97 nM and the “IC50, inhibition of VEGF-induced ERK1/2 phosphorylation” value [3] was ~4 nM and ~10 nM. The “IC50, inhibition of VEGF-induced p38 MAPK phosphorylation” value [3] was about 7.4 nM, the “Bottom plateau (ERK1/2 phosphorylation, counts)” value [8] was 3690 counts and the “Bottom plateau (Src phosphorylation, counts)” value [8] was 6300 counts. The “IC50 (ERK1/2 phosphorylation)” value [8] was 5.6 nM and the “IC50 (Src phosphorylation)” value [8] was 4 nM.

B6: TPP-11738 (bispecific antibody, human IgG1, kappa, L234A L235A)
light: B5 light
heavy: not shown
With B6 the “IC50, inhibition of VEGF-induced ERK1/2 phosphorylation” value [3] was ~4 nM and ~10 nM.

B7: TPP-14937 (bispecific antibody, human IgG1, kappa, L234A L235A)
light: B5 light
heavy: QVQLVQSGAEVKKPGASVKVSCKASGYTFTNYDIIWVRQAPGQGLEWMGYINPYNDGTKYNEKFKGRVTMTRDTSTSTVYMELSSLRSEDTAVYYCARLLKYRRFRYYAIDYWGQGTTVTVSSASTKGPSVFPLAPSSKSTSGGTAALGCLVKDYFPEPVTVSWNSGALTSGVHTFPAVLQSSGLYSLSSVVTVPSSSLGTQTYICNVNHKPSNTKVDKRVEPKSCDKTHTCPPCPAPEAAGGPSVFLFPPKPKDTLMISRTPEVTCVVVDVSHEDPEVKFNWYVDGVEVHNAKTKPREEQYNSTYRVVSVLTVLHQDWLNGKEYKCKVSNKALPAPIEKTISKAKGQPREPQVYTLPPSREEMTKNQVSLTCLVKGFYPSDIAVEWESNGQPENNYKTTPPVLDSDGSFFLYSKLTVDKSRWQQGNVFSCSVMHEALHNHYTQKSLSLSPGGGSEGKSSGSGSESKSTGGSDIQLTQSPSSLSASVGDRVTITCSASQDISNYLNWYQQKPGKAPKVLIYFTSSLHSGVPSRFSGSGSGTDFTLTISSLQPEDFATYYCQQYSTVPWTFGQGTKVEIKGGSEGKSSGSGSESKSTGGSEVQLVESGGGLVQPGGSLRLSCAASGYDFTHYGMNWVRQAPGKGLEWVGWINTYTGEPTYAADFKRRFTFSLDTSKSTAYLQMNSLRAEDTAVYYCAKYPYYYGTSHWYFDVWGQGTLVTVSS
In the case of B7, the “Bottom plateau (ERK1/2 phosphorylation, counts)” value [7] is reported as -926 counts, the “Bottom plateau (Src phosphorylation, counts)” value [7] is reported as 4570 counts and the “IC50 (ERK1/2 phosphorylation)” value [7] is reported as 5.58 nM. For the same binder, the “IC50 (Src phosphorylation)” value [7] was 5.83 nM, the “concentration for full inhibition” value [3] was 4 nM and the “Bottom plateau (ERK1/2 phosphorylation, counts)” value [8] was -927 counts. For the same binder, the “Bottom plateau (Src phosphorylation, counts)” value [8] was 4570 counts, the “IC50 (ERK1/2 phosphorylation)” value [8] was 5.6 nM and the “IC50 (Src phosphorylation)” value [8] was 5.8 nM.

B8: TPP-14936 (bispecific antibody, human IgG1, kappa, L234A L235A)
light: B5 light
heavy: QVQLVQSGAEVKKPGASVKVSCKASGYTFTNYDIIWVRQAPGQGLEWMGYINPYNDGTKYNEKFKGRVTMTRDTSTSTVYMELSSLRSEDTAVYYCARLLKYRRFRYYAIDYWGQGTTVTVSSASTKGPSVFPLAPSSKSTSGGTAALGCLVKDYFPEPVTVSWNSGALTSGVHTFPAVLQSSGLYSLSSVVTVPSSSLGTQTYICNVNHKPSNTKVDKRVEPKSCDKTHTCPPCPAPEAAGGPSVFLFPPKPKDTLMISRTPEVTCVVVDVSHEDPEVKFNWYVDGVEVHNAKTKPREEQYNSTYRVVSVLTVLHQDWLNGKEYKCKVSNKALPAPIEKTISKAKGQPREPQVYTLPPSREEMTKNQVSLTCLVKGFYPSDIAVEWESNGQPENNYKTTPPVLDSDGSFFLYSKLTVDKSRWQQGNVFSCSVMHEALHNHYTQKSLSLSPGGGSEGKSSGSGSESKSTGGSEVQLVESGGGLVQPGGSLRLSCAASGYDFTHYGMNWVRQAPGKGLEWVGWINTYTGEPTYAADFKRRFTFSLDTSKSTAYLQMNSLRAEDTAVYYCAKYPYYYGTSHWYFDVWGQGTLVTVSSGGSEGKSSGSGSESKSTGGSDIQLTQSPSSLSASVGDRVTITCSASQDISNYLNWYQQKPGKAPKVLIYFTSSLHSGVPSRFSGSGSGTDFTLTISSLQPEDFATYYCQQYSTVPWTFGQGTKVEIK
For B8, the “Bottom plateau (ERK1/2 phosphorylation, counts)” value [7] was -340 counts, the “Bottom plateau (Src phosphorylation, counts)” value [7] was 4650 counts and the “IC50 (ERK1/2 phosphorylation)” value [7] was 3.49 nM. The “IC50 (Src phosphorylation)” value [7] was 3.4 nM, the “concentration for full inhibition” value [3] was 1 nM and the “Bottom plateau (ERK1/2 phosphorylation, counts)” value [8] was -341 counts. The “Bottom plateau (Src phosphorylation, counts)” value [8] was 4650 counts, the “IC50 (ERK1/2 phosphorylation)” value [8] was 3.5 nM and the “IC50 (Src phosphorylation)” value [8] was 3.4 nM.
